Sequences and labels used below:
B1: CD33/CD3 2×2 T-cell engager 10 (bispecific antibody)
chain: DIQMTQSPSSLSASVGDRVTITCRSSTGAVTTSNYANWVQQKPGKAPKGLIGGTNKRAPGVPSRFSGSLIGDKATLTISSLQPEDFATYYCALWYSNLWVFGQGTKVEIKGGSGGSQVQLVQSGAEVKKPGASVKVSCKASGYTFTSYDINWVRQAPGQGLEWMGWMNPNSGNTGFAQKFQGRVTMTRDTSTSTVYMELSSLRSEDTAVYYCARDRANTDYSFGMDVWGQGTLVTVSSGGSGQSVLTQPPSASGTPGQRVTISCSGSRSNIGSNTVNWYQQLPGTAPKLLIYGNNQRPSGVPDRFSGSKSGTSASLAISGLQSEDEADYYCATWDDSLIGWVFGGGTKLTVLGGSGGSEVQLVESGGGLVQPGGSLRLSCAASGFTFSTYAMNWVRQAPGKGLEWVGRIRSKYNNYATYYADSVKDRFTISRDDSKNSLYLQMNSLKTEDTAVYYCARHGNFGNSYVSWFAYWGQGTLVTVSSAAAGSHHHHHH
notes: Non-covalent homodimer
B2: CD33/CD3 2×2 T-cell engager 02 (bispecific antibody)
chain: B1 chain with S63A, L69G, I70S, D72T, K73D, A74F, N218V, S222Y, F223Y
notes: Non-covalent homodimer; also called 2×2 T-cell engager 2
B3: CD33/CD3 2×2 T-cell engager 03 (bispecific antibody)
chain: B1 chain with S63A, L69G, I70S, D72T, K73D, A74F
notes: Non-covalent homodimer; also called 2×2 T-cell engager 3
B4: CD33/CD3 2×2 T-cell engager 01 (bispecific antibody)
chain: B1 chain with S63A, L69G, I70S, D72T, K73D, A74F, Y221F, F223Y
notes: Non-covalent homodimer; also called 2×2 T-cell engager 1
B5: CD33/CD3 2×2 T-cell engager 08 (bispecific antibody)
chain: QSVLTQPPSASGTPGQRVTISCSGSRSNIGSNTVNWYQQLPGTAPKLLIYGNNQRPSGVPDRFSGSKSGTSASLAISGLQSEDEADYYCATWDDSLIGWVFGGGTKLTVLGGSGGSEVQLVESGGGLVQPGGSLRLSCAASGFTFSTYAMNWVRQAPGKGLEWVGRIRSKYNNYATYYADSVKDRFTISRDDSKNSLYLQMNSLKTEDTAVYYCARHGNFGNSYVSYFAYWGQGTLVTVSSGGSGGSDIQMTQSPSSLSASVGDRVTITCRSSTGAVTTSNYANWVQQKPGKAPKALIGGTNKRAPGVPSRFSGSLIGDKATLTISSLQPEDFATYYCALWYSNLWVFGQGTKVEIKGGSGGSQVQLVQSGAEVKKPGASVKVSCKASGYTFTSYDINWVRQAPGQGLEWMGWMNPNSGNTGFAQKFQGRVTMTRDTSTSTVYMELSSLRSEDTAVYYCARDRANTDFSYGMDVWGQGTLVTVSSAAAGSHHHHHH
notes: Non-covalent homodimer; also called 2×2 T-cell engager 8

Positions count from the first letter of the chain named.

T1 sequence (P07766 23-207, chain 1 of 4): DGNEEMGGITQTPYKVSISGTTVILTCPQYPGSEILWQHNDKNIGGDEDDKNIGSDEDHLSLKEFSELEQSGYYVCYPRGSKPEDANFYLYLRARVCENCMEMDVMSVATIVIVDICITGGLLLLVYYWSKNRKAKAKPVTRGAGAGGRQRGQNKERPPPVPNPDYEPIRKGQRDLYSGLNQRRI
T1 sequence (P09693 23-182, chain 2 of 4): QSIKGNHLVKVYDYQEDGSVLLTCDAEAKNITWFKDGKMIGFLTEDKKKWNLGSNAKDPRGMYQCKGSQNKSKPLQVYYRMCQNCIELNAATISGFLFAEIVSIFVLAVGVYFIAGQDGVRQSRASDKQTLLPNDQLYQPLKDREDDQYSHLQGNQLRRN
T1 sequence (P04234 22-171, chain 3 of 4): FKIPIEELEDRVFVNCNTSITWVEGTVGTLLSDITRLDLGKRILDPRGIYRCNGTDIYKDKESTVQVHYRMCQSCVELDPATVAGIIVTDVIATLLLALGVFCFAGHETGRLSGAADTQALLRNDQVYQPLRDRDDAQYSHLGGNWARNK
T1 sequence (P20963 22-164, chain 4 of 4): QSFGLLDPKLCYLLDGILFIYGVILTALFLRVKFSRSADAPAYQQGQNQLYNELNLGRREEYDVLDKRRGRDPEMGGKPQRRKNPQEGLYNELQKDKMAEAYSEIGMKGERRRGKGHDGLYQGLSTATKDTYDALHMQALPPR

One assay concerns the target T1, human CD3 (human, UniProt P07766 23-207; P09693 23-182; P04234 22-171; P20963 22-164). Put plainly: cell-based or functional assay.
As to B1, the “CD25 Induction EC50” value came out at 10 pM, the “CD69 Induction EC50” value turned out to be 6 pM and the “T cell Proliferation in PBMC EC50” value is 6 pM.
For B2, the “CD25 Induction EC50” value is 42 pM, the “CD69 Induction EC50” value came to 27 pM and the “T cell Proliferation in PBMC EC50” value turned out to be 4 pM.
Turning to B3, the “CD25 Induction EC50” value came to 117 pM, the “CD69 Induction EC50” value amounted to 87 pM and the “T cell Proliferation in PBMC EC50” value amounted to 63 pM.
As to B4, the “CD25 Induction EC50” value was found to be 92 pM, the “CD69 Induction EC50” value was 91 pM and the “T cell Proliferation in PBMC EC50” value was determined as 89 pM.

For the next assay, the target named is T2, human CD33 (human, UniProt P20138 18-364).
T2 construct: whole, on cells; also called huCD33; CD33 on HL-60, KG-1, KG-1a, U-937 cells
T2 sequence (P20138 18-364): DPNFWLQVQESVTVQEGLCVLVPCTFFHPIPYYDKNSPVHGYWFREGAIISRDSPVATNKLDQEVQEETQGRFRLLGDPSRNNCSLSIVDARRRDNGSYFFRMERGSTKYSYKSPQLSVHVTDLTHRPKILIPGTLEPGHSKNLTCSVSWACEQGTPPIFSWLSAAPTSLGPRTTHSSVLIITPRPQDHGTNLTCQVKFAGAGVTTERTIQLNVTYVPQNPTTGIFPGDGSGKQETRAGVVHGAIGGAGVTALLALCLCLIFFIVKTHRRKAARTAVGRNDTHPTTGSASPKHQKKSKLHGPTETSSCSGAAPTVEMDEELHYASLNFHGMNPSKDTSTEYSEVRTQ
Put plainly: flow cytometry titration, HL-60 cells. The procedure: (§1) Cells were incubated with 100 μL of serial dilutions of CD33/CD3 2×2 T-cell engagers. After washing three times with FACS buffer the cells were incubated with 0.1 mL of 10 μg/mL mouse monoclonal anti-His antibody in the same buffer for 45 min on ice. After a second washing cycle, the cells were incubated with 0.1 mL of 15 μg/mL FITC-conjugated goat anti-mouse IgG antibodies under the same conditions as before. As a control, cells were incubated with the anti-His IgG followed by the FITC-conjugated goat anti-mouse IgG antibodies without anti-CD33 2×2 T-cell engagers. The cells were then washed again and resuspended in 0.2 mL of FACS buffer containing 2 μg/mL propidium iodide (PI) in order to exclude dead cells. The fluorescence of 1×10⁴ living cells was measured using a Beckman-Coulter FC500 MPL flow cytometer using the MXP software (Beckman-Coulter, Krefeld, Germany) or a Millipore Guava EasyCyte flow cytometer using the Incyte software (Merck Millipore, Schwalbach, Germany). Mean fluorescence intensities of the cell samples were calculated using CXP software (Beckman-Coulter, Krefeld, Germany) or Incyte software (Merck Millipore, Schwalbach, Germany). After subtracting the fluorescence intensity values of the cells stained with the secondary and tertiary reagents alone the values were used for calculation of the KD values with the equation for one-site binding (hyperbola) of the GraphPad Prism (version 6.00 for Windows, GraphPad Software, La Jolla Calif. USA). […]
On the technique in general: Flow cytometry measures light scatter and fluorescence of single cells or particles in a stream.
In turn, B5 registered an equilibrium dissociation constant (Kd) of 0.3 nM.
As to B1, binding was put at a Kd of 0.5 nM.
B2 showed a dissociation constant (Kd) of 0.2 nM.
The molecule B3 yielded a Kd of 1.1 nM.
B4 gave a Kd of 0.6 nM.

In another assay the target is T2, human CD33. Put plainly: flow cytometry titration, KG-1 cells. The procedure: as §1
B5 returned a Kd of 0.5 nM.
The same measure, in the same setting: in the case of B1 it was 1 nM; in that of B2, 0.3 nM.
In turn, B3 gave a Kd of 1.8 nM.
On to B4, for which binding was put at a Kd of 0.9 nM.

For another assay, the target named is T1, human CD3. Description: flow cytometry titration, T cells (human CD3+).
In the case of B5, binding was put at a Kd of 2.4 nM.
Same read-out and setting: as for B1, the figure is 1.9 nM; as for B2, 69.8 nM.
Molecule B3 yielded a Kd of 81.9 nM.
The same measure, in the same setting: in the case of B4 it was 94.2 nM.

The next assay has as its target T2, human CD33. Put plainly: cell-based or functional assay.
For B5, the “EC50 on HL-60 (cytotoxicity)” value stood at 1.8 pM.
B1: the “EC50 on HL-60 (cytotoxicity)” value came to 7 pM.
On the same count and under the same terms, in the case of B2 it was 0.5 pM.
On the same count and under the same terms, in the case of B3 it was 3.6 pM; in that of B4, 1.9 pM.

Another assay has as its target T2, human CD33. Put plainly: flow cytometry titration, U-937 cells. The procedure:
as §1
On to B5, for which the dissociation constant (Kd) is 1.8 nM.
Molecule B1 had a dissociation constant (Kd) of 1.7 nM.
Molecule B2 gave a Kd of 0.9 nM.
With B3, the affinity, expressed as Kd, was 8.9 nM.
The same measure, in the same setting: in the case of B4 it was 7.1 nM.

The target in the next assay is T2, human CD33. Description: flow cytometry, HL-60 cells.
The molecule B1 gave a Kd of 0.5 nM.
On the same count and under the same terms, in the case of B2 it was 0.2 nM; in that of B3, 1.1 nM; in that of B4, 0.6 nM.

For a further assay, the target named is T1, human CD3. Description: flow cytometry, human T-cells.
The molecule B1 registered a dissociation constant Kd of 1.9 nM.
Consider B2, for which the Kd came to 69.8 nM.
Molecule B3 gave a Kd of 81.9 nM.
Still for that read-out and setting: in the case of B4 it was 94.2 nM.

Broadly, the Kd is a measure of binding affinity in units of concentration. A higher Kd goes with lower affinity.
